Experimental data as given in patent US20050209141A1.

Tests used:
[1] = biological target: angiotensin II receptor (AT1AR) transfected into human neuroblastoma SH-SY5Y cells (SH-SY5Y-AT1A cells); test: cell-based or functional assay
[2] = biological target: guinea pig angiotensin type 1 receptor on cardiac sympathetic nerve endings (guinea pig); test: cell-based or functional assay
[3] = biological target: T1, human angiotensinogen (Sigma), P01019
T1 chain: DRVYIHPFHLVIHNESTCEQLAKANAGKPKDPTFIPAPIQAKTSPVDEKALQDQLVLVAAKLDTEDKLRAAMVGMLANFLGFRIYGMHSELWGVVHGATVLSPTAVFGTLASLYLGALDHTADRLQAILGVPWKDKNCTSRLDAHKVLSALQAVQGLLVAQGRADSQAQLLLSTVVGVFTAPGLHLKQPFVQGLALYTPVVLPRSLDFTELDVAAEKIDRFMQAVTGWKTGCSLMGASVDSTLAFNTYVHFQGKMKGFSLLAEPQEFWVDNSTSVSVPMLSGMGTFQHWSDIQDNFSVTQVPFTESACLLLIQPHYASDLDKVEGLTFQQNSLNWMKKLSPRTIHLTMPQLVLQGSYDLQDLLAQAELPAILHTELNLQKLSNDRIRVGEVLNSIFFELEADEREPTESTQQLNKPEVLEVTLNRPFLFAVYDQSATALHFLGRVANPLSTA

Molecule: angiotensin II (peptide)
- release of [3H]MPP+ from SH-SY5Y-AT1A cells [1]: 20%
- norepinephrine release from guinea-pig cardiac sympathetic nerve endings [2]: 27%

B1: human renin of the human mast cell line HMC-1 (cells, lysate and releasate) (protein)
chain: LTLGNTTSSVILTNYMDTQYYGEIGIGTPPQTFKVVFDTGSSNVWVPSSKCSRLYTACVYHKLFDASDSSSYKHNGTELTLRYSTGTVSGFLSQDIITVGGITVTQMFGEVTEMPALPFMLAEFDGVVGMGFIEQAIGRVTPIFDNIISQGVLKEDVFSFYYNRDSENSQSLGGQIVLGGSDPQHYEGNFHYINLIKTGVWQIQMKGVSVGSSTLLCEDGCLALVDTGASYISGSTSSIEKLMEALGAKKRLFDYVVKCNEGPTLPDISFHLGGKEYTLTSADYVFQESYSSKKLCTLAIHAMDIPPPTGPTWALGATFIRKFYTEFDRRNNRIGFALAR
- ANG I activity of HMC-1 releasate with 240 nM angiotensinogen, with or without BILA2157 [3]: about 70% of the ANG I activity measured in the presence of 240 nM angiotensinogen, is due to BILA2157-sensitive renin
- ANG I formed (renin activity) by RIA [3]: The amount of ANG I formed increased with angiotensinogen concentration.
- ANG I formed (renin activity) by RIA, with or without BILA2157 (100 nM) [3]: ˜70% of the total ANG I formed originates from renin
